From US20200317768A1 (published 2020)

T1: cynomolgus monkey FcγRIIb extracellular domain with C-terminal His-tag (cynomolgus monkey)
T1 construct: Expressed in FreeStyle 293 cells and purified; also called cyno FcγRIIb; cynoFcγRIIb; not shown: C-terminal His-tag
T1 chain: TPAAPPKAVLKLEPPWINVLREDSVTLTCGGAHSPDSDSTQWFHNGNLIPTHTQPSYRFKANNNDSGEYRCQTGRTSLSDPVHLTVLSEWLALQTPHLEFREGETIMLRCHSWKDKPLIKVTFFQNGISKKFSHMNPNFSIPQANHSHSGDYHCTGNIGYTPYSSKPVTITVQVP

T2: cynomolgus monkey FcγRIIa1 extracellular domain with C-terminal His-tag (cynomolgus monkey)
T2 construct: Expressed in FreeStyle 293 cells and purified; also called cyno FcγRIIa1; cynoFcgRIIa1; not shown: C-terminal His-tag
T2 chain: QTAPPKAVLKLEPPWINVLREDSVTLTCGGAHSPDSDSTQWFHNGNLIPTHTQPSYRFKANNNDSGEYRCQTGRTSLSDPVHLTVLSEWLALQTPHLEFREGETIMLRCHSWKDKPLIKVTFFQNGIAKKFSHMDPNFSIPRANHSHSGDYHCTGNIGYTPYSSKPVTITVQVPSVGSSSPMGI

T3: human FcγRIIaH extracellular domain with C-terminal His-tag (human, UniProt P12318 34-217)
T3 construct: Expressed in FreeStyle 293 cells and purified; also called human FcγRIIa (type H); FcgRIIaH; not shown: C-terminal His-tag
T3 sequence: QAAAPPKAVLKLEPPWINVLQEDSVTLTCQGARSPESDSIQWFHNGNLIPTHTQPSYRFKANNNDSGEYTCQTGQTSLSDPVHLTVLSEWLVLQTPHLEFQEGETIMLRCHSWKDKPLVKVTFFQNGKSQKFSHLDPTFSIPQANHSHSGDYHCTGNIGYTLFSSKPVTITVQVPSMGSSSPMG

T4: human FcγRIIaR extracellular domain with C-terminal His-tag (human, UniProt P12318 34-217)
T4 construct: Expressed in FreeStyle 293 cells and purified; also called human FcγRIIa (type R); FcgRIIaR; not shown: C-terminal His-tag
T4 chain: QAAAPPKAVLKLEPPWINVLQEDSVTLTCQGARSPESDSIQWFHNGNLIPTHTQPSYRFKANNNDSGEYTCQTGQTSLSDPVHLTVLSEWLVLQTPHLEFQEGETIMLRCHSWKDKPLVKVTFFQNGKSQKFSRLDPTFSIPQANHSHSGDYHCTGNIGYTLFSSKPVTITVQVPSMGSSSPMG

T5: cynomolgus monkey FcγRIIIaS extracellular domain with C-terminal His-tag (cynomolgus monkey, UniProt Q8SPW2 21-206 at identity 1.00))
T5 construct: Expressed in FreeStyle 293 cells and purified; also called cyno FcγRIIIaS; cynoFcγRIIIaS; not shown: C-terminal His-tag
T5 chain: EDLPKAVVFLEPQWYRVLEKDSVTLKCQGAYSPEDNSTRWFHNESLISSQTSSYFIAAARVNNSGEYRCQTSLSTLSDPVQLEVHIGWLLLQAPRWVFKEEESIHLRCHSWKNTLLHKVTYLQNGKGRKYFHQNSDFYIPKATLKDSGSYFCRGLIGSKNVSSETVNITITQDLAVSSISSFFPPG

T6: human FcγRIIb extracellular domain with C-terminal His-tag (human, UniProt P31994 43-217)
T6 construct: Expressed in FreeStyle 293 cells and purified; also called humanFcgRIIb; not shown: C-terminal His-tag
T6 sequence: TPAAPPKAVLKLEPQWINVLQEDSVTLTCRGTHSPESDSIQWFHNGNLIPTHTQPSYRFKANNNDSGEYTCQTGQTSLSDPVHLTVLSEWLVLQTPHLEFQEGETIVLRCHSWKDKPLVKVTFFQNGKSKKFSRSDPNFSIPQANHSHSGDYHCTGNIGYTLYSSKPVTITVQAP

T7: cynomolgus monkey FcγRIIa3 extracellular domain with C-terminal His-tag (cynomolgus monkey)
T7 construct: Expressed in FreeStyle 293 cells and purified; also called cyno FcγRIIa3; cynoFcgRIIa3; not shown: C-terminal His-tag
T7 chain: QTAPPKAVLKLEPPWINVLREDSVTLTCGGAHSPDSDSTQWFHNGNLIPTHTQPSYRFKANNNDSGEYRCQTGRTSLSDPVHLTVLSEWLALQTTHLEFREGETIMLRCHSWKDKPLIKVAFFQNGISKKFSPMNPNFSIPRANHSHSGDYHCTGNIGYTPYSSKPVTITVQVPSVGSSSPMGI


Key:
[1] = target: T1, cynomolgus monkey FcγRIIb extracellular …; test: SPR (Biacore); KD of SG1 divided by KD of the variant for this FcgR;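 note: relative to parent M103205H795-SG1 carrying the SG1 human heavy chain constant region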
[2] = target: T2, cynomolgus monkey FcγRIIa1 …; test: SPR (Biacore), antibody captured on chip, FcgR extracellular domain as analyte, 25 C
[3] = target: T3, human FcγRIIaH extracellular domain …; test: as above
[4] = target: T8, human FcγRIIIaV extracellular domain with C-terminal His-tag (human, UniProt P08637 17-208); test: as above
T8 construct: Expressed in FreeStyle 293 cells and purified; also called FcgRIIIaV; not shown: C-terminal His-tag
T8 sequence (P08637 17-208 F176V): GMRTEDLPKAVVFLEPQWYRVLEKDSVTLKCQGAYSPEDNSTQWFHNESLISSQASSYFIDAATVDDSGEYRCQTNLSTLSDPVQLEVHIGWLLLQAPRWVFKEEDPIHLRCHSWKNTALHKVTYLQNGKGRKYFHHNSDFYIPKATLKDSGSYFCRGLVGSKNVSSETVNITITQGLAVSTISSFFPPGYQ

[5] = target: T4, human FcγRIIaR extracellular domain …; test: as above
[6] = target: T5, cynomolgus monkey FcγRIIIaS …; test: as above
[7] = target: T6, human FcγRIIb extracellular domain with …; test: as above
[8] = target: T7, cynomolgus monkey FcγRIIa3 …; test: as above

Binder | KD fold (SG1 = 1) [1] [fold] | Kd [2] [µM] | Kd [3] [µM] | Kd [4] [µM] | Kd [5] [µM] | Kd [6] [µM] | Kd [7] [µM] | Kd [8] [µM]
M103205H795-MY176 / M103202L889-SK1 (antibody, human IgG1, kappa, Position 396 variant derived from MY052, expressed with M103202L889-SK1 as light chain) heavy: QVTLKESGPVLVKPTETLTLTCTVSGIDLSHDDISWVRQAPGKGLEWVGIISYAGSTYYASWAKGRLTISKDTSKNQVVLTMTNMDPVDTATYYCARGVPAYSHGGDLWGQGTLVTVSSASTKGPSVFPLAPSSKSTSGGTAALGCLVKDYFPEPVTVSWNSGALTSGVHTFPAVLQSSGLYSLSSVVTVPSSSLGTQTYICNVNHKPSNTKVDKKVEPKSCDKTHTCPPCPAPELLNGPSVFLFPPKPKDTLMISRTPEVTCVVVDVSEEDPEVKFNWYVDGVEVHNAKTKPREEQYNSTYRVVSVLTVLHQDWLNGKEYKCKVSNKALPAPIEKTISKAKGQPREPQVYTLPPSREEMTKNQVSLTCLVKGFYPSDIAVEWESNGQPENNYKTTPLVLDSDGSFFLYSKLTVDKSRWQQGNVFSCSVMHEALHNHYTQKSLSLSP light: DIVMTQSPATLSLSPGERATLSCTSSQSVYHANWLSWFQQKPGQPPKLLIYWASTLAYGVPSRFSGSGSGTDFTLTISSLQPEDAATYYCAGGYGGGRYAFGQGTKVEIKRTVAAPSVFIFPPSDEQLKSGTASVVCLLNNFYPREAKVQWKVDNALQSGNSQESVTEQDSKDSTYSLSSTLTLSKADYEKHKVYACEVTHQGLSSPVTKSFNRGEC | 3 | 1.3 | 0.7 | 6.7 | 1.3 | 2.7 | 7 | 5
M103205H795-MY180 / M103202L889-SK1 (antibody, human IgG1, kappa, Position 396 variant derived from MY052, expressed with M103202L889-SK1 as light chain) heavy: QVTLKESGPVLVKPTETLTLTCTVSGIDLSHDDISWVRQAPGKGLEWVGIISYAGSTYYASWAKGRLTISKDTSKNQVVLTMTNMDPVDTATYYCARGVPAYSHGGDLWGQGTLVTVSSASTKGPSVFPLAPSSKSTSGGTAALGCLVKDYFPEPVTVSWNSGALTSGVHTFPAVLQSSGLYSLSSVVTVPSSSLGTQTYICNVNHKPSNTKVDKKVEPKSCDKTHTCPPCPAPELLNGPSVFLFPPKPKDTLMISRTPEVTCVVVDVSEEDPEVKFNWYVDGVEVHNAKTKPREEQYNSTYRVVSVLTVLHQDWLNGKEYKCKVSNKALPAPIEKTISKAKGQPREPQVYTLPPSREEMTKNQVSLTCLVKGFYPSDIAVEWESNGQPENNYKTTPSVLDSDGSFFLYSKLTVDKSRWQQGNVFSCSVMHEALHNHYTQKSLSLSP light: DIVMTQSPATLSLSPGERATLSCTSSQSVYHANWLSWFQQKPGQPPKLLIYWASTLAYGVPSRFSGSGSGTDFTLTISSLQPEDAATYYCAGGYGGGRYAFGQGTKVEIKRTVAAPSVFIFPPSDEQLKSGTASVVCLLNNFYPREAKVQWKVDNALQSGNSQESVTEQDSKDSTYSLSSTLTLSKADYEKHKVYACEVTHQGLSSPVTKSFNRGEC | 1.4 | 2.6 | 1.7 | 5.9 | 3 | 3.1 | 19 | 12
M103205H795-MY177 / M103202L889-SK1 (antibody, human IgG1, kappa, Position 396 variant derived from MY052, expressed with M103202L889-SK1 as light chain) heavy: QVTLKESGPVLVKPTETLTLTCTVSGIDLSHDDISWVRQAPGKGLEWVGIISYAGSTYYASWAKGRLTISKDTSKNQVVLTMTNMDPVDTATYYCARGVPAYSHGGDLWGQGTLVTVSSASTKGPSVFPLAPSSKSTSGGTAALGCLVKDYFPEPVTVSWNSGALTSGVHTFPAVLQSSGLYSLSSVVTVPSSSLGTQTYICNVNHKPSNTKVDKKVEPKSCDKTHTCPPCPAPELLNGPSVFLFPPKPKDTLMISRTPEVTCVVVDVSEEDPEVKFNWYVDGVEVHNAKTKPREEQYNSTYRVVSVLTVLHQDWLNGKEYKCKVSNKALPAPIEKTISKAKGQPREPQVYTLPPSREEMTKNQVSLTCLVKGFYPSDIAVEWESNGQPENNYKTTPNVLDSDGSFFLYSKLTVDKSRWQQGNVFSCSVMHEALHNHYTQKSLSLSP light: DIVMTQSPATLSLSPGERATLSCTSSQSVYHANWLSWFQQKPGQPPKLLIYWASTLAYGVPSRFSGSGSGTDFTLTISSLQPEDAATYYCAGGYGGGRYAFGQGTKVEIKRTVAAPSVFIFPPSDEQLKSGTASVVCLLNNFYPREAKVQWKVDNALQSGNSQESVTEQDSKDSTYSLSSTLTLSKADYEKHKVYACEVTHQGLSSPVTKSFNRGEC | 2.2 | 1.9 | 10 | 6.2 | 2.8 | 2.9 | 11 | 8.1

The remaining lines, values ahead:

KD fold (SG1 = 1) [1] [fold] | Kd [2] [µM] | Kd [3] [µM] | Kd [4] [µM] | Kd [5] [µM] | Kd [6] [µM] | Kd [7] [µM] | Kd [8] [µM] | Binder
1.8 | 1.9 | 11 | 5.9 | 2.1 | 2.7 | 12 | 7.9 | M103205H795-MY179 / M103202L889-SK1 (antibody, human IgG1, kappa, Position 396 variant derived from MY052, expressed with M103202L889-SK1 as light chain) heavy: QVTLKESGPVLVKPTETLTLTCTVSGIDLSHDDISWVRQAPGKGLEWVGIISYAGSTYYASWAKGRLTISKDTSKNQVVLTMTNMDPVDTATYYCARGVPAYSHGGDLWGQGTLVTVSSASTKGPSVFPLAPSSKSTSGGTAALGCLVKDYFPEPVTVSWNSGALTSGVHTFPAVLQSSGLYSLSSVVTVPSSSLGTQTYICNVNHKPSNTKVDKKVEPKSCDKTHTCPPCPAPELLNGPSVFLFPPKPKDTLMISRTPEVTCVVVDVSEEDPEVKFNWYVDGVEVHNAKTKPREEQYNSTYRVVSVLTVLHQDWLNGKEYKCKVSNKALPAPIEKTISKAKGQPREPQVYTLPPSREEMTKNQVSLTCLVKGFYPSDIAVEWESNGQPENNYKTTPRVLDSDGSFFLYSKLTVDKSRWQQGNVFSCSVMHEALHNHYTQKSLSLSP light: DIVMTQSPATLSLSPGERATLSCTSSQSVYHANWLSWFQQKPGQPPKLLIYWASTLAYGVPSRFSGSGSGTDFTLTISSLQPEDAATYYCAGGYGGGRYAFGQGTKVEIKRTVAAPSVFIFPPSDEQLKSGTASVVCLLNNFYPREAKVQWKVDNALQSGNSQESVTEQDSKDSTYSLSSTLTLSKADYEKHKVYACEVTHQGLSSPVTKSFNRGEC
1.9 | 2 | 1.2 | 4.5 | 2.3 | 3 | 13 | 8.7 | M103205H795-MY178 / M103202L889-SK1 (antibody, human IgG1, kappa, Position 396 variant derived from MY052, expressed with M103202L889-SK1 as light chain) heavy: QVTLKESGPVLVKPTETLTLTCTVSGIDLSHDDISWVRQAPGKGLEWVGIISYAGSTYYASWAKGRLTISKDTSKNQVVLTMTNMDPVDTATYYCARGVPAYSHGGDLWGQGTLVTVSSASTKGPSVFPLAPSSKSTSGGTAALGCLVKDYFPEPVTVSWNSGALTSGVHTFPAVLQSSGLYSLSSVVTVPSSSLGTQTYICNVNHKPSNTKVDKKVEPKSCDKTHTCPPCPAPELLNGPSVFLFPPKPKDTLMISRTPEVTCVVVDVSEEDPEVKFNWYVDGVEVHNAKTKPREEQYNSTYRVVSVLTVLHQDWLNGKEYKCKVSNKALPAPIEKTISKAKGQPREPQVYTLPPSREEMTKNQVSLTCLVKGFYPSDIAVEWESNGQPENNYKTTPQVLDSDGSFFLYSKLTVDKSRWQQGNVFSCSVMHEALHNHYTQKSLSLSP light: DIVMTQSPATLSLSPGERATLSCTSSQSVYHANWLSWFQQKPGQPPKLLIYWASTLAYGVPSRFSGSGSGTDFTLTISSLQPEDAATYYCAGGYGGGRYAFGQGTKVEIKRTVAAPSVFIFPPSDEQLKSGTASVVCLLNNFYPREAKVQWKVDNALQSGNSQESVTEQDSKDSTYSLSSTLTLSKADYEKHKVYACEVTHQGLSSPVTKSFNRGEC
